Laboratory results as given in US20030175735.

Tested on: recombinant protein ACp5 (p5 cleavage site of the HIV protease inserted between amino acids 224 and 225 of the adenyl cyclase of B. pertussis)

wild-type protease of the HIV virus
cleavage in vitro: The cleavage of ACp5 by the HIV protease was also shown in vitro
phenotype on McConkey maltose medium of DHT1 bacteria cotransformed with pKACp5 and pUCVIH: exhibit a Cya^- phenotype (white colonies on McConkey maltose medium) in the absence of protease inhibitors
